Patent US20210062263A1, “A CLINICAL […]” (priority 2016, published 2021)
Entries after “also recorded” stand apart in the source; their conditions may differ.

Tests used:
Assay type in all cases: cell-based, human
keloid fibroblasts [1] = assay: qRT-PCR relative gene expression in keloid fibroblasts
Description: (§1) Normal and keloid tissue samples were collected from 11 patients and were used to establish primary fibroblast cultures. Using these fibroblasts, qRT-PCR for relative gene expressions and enzyme-linked immunosorbent assay (ELISA) for relative protein expressions were performed. Fibroblasts were also treated with 200 pM activin for 24 hours to examine the effects on fibrosis-related genes.
(§2) Normal and keloid tissue samples were collected from 11 patients and used to establish primary fibroblast cell cultures as described in Example 1. Relative expressions of fibrosis-related genes were examined using qRT-PCR. Protein levels of activin and follistatin, an activin-antagonist, were also measured by ELISA and radioimmunoassay in lysates of dermal fibroblasts. Furthermore, keloid fibroblasts were treated with 1 nM follistatin for 24 hours to examine the effects on fibrosis-related genes.
(§3) Normal and keloid fibroblasts were isolated and cultured from a patient. Relative expressions of fibrosis-related genes were examined using qRT-PCR. Protein levels of activin and follistatin were also measured by ELISA and radioimmunoassay in dermal fibroblasts as described in Example 2. Furthermore, keloid fibroblasts were daily treated with 1 nM follistatin for 1, 3 and 5 days to examine the effects on fibrosis-related genes.
(§4) Normal and keloid fibroblasts were isolated and cultured in vitro using standard fibroblast cell culture protocols. Relative gene expressions were examined using qRT-PCR. Protein levels of activin and follistatin were also measured in dermal fibroblasts by enzyme-linked immunosorbent assay and radioimmunoassay respectively. Cells were also treated with 100 ng/ml follistatin for 5 days to examine the effects on the expression of fibrosis-related genes.
(§5) The upregulation of CTGF by activin A was also confirmed in the multiple patient samples (FIG. 8n).
(§6) To investigate the role of AP1 in keloid pathogenesis, fibroblasts were treated for 3 days with SR11302, an inhibitor of AP1 activity. […] Moreover, in order to examine the effects of FST288, fibroblasts were treated for 3 days or 5 days.

normal fibroblasts [2] = assay: qRT-PCR relative gene expression in normal fibroblasts
Description: as §1, §2, §3, §4, §5, §6

keloid fibroblasts [3] = assay: Activin A protein in cell lysate and media of keloid fibroblasts; details: after treatment with AP1 inhibitor
Description: as §1, §4, §6

normal fibroblasts [4] = assay: Activin A protein in cell lysate and media of normal fibroblasts; details: after treatment with AP1 inhibitor
Description: as §1, §4, §6

keloid fibroblasts [5] = assay: Tolerance of keloid fibroblasts in culture (cell death); details: 3 days
Description: as §6

normal fibroblasts [6] = assay: Tolerance of normal fibroblasts in culture (cell death); details: 3 days
Description: as §6

keloid fibroblasts [7] = assay: RNA sequencing of keloid fibroblast cultures with/without follistatin; details: single follistatin treatment
Description: RNAseq was performed with/without a single follistatin treatment on normal and keloid fibroblast cultures on day 1 and day 5 (FIG. 7) to compare the extent of gene expression changes in keloid disease.

[8] = SR11302 10 uM and 15 uM, 3 days
[9] = daily 1 nM follistatin, five days

Molecule: CC1=C(/C=C/C(=C/C=C/C(C)=C/C(=O)O)c2ccc(C)cc2)C(C)(C)CCC1 [SR11302]
- CTGF gene expression (keloid fibroblasts [1]; [8]): significantly decreased
- INHBA gene expression (keloid fibroblasts [1]; [8]): significantly decreased
- CTGF gene expression (normal fibroblasts [2]; [8]): significantly decreased
- INHBA gene expression (normal fibroblasts [2]; [8]): significantly decreased
- activin A protein in cell lysate and media (keloid fibroblasts [3]): significantly decreased
- activin A protein in cell lysate and media (normal fibroblasts [4]): significantly decreased
- doses resulting in cell death (keloid fibroblasts [5]): higher than 20 uM
- doses resulting in cell death (normal fibroblasts [6]): higher than 20 uM

B1: follistatin: an activin-antagonist protein; isoform not stated in these examples (protein, UniProt P19883 30-344, looked up)
Follistatin: GNCWLRQAKNGRCQVLYKTELSKEECCSTGRLSTSWTEEDVNDNTLFKWMIFNGGAPNCIPCKETCENVDCGPGKKCRMNKKNKPRCVCAPDCSNITWKGPVCGLDGKTYRNECALLKARCKEQPELEVQYQGRCKKTCRDVFCPGSSTCVVDQTNNAYCVTCNRICPEPASSEQYLCGNDGVTYSSACHLRKATCLLGRSIGLAYEGKCIKAKSCEDIQCTGGKKCLWDFKVGRGRCSLCDELCPDSKSDEPVCASDNATYASECAMKEAACSSGVLLEVKHSGSCNSISEDTEEEEEDEDQDYSFPISSILEW
- CTGF gene expression (keloid fibroblasts [1]; 1 nM follistatin, 24 hours): significantly decreased
- activin A gene expression (keloid fibroblasts [1]; 1 nM follistatin, 24 hours): significantly decreased
- CTGF (downstream target of activins) expression (keloid fibroblasts [1]; 100 ng/ml follistatin, vs controls): declined significantly
- activin A expression of the gene and its protein (keloid fibroblasts [1]; after treatment with follistatin (summary of Examples 1 to 3)): significant downregulation
- CTGF gene expression (keloid fibroblasts [1]; [9]): significantly decreased
- activin A gene expression (keloid fibroblasts [1]; [9]): significantly decreased
- activin A gene expression (keloid fibroblasts [1]; single treatment, 100 ng/ml follistatin): significantly decreased
- INHBA expression (RNAseq) (keloid fibroblasts [7]; 5 days, 100 ng/ml): diminished
- CTGF expression (RNAseq) (keloid fibroblasts [7]; day 5, 100 ng/ml): significantly decreased
- PAI1 expression (RNAseq) (keloid fibroblasts [7]; day 5, 100 ng/ml): significantly decreased
- other matrix related genes (RNAseq) (keloid fibroblasts [7]; day 5, 100 ng/ml): downregulated

B2: activin A: dimeric protein of the TGF-β superfamily, added exogenously at 200 pM (protein, UniProt P08476 311-426, looked up)
Inhibin beta A chain: GLECDGKVNICCKKQFFVSFKDIGWNDWIIAPSGYHANYCEGECPSHIAGTSGSSLSFHSTVINHYRMRGHSPFANLKSCCVPTKLRPMSMLYYDDGQNIIKKDIQNMIVEECGCS
modifications: Inhibin beta A chain homodimer
notes: dimeric protein of the TGF-β superfamily, added exogenously at 200 pM
- CTGF gene expression (keloid fibroblasts [1]; 200 pM activin A, 24 hours): significantly upregulated
- FOSB gene expression (keloid fibroblasts [1]; 200 pM activin A, 24 hours): significantly upregulated
- IL6 gene expression (keloid fibroblasts [1]; 200 pM activin A, 24 hours): significantly upregulated
- INHBA (activin A) gene expression (keloid fibroblasts [1]; 200 pM activin A, 24 hours): further significant upregulation; also recorded: significantly upregulated
- JUNB gene expression (keloid fibroblasts [1]; 200 pM activin A, 24 hours): significantly upregulated
- PAI1 gene expression (keloid fibroblasts [1]; 200 pM activin A, 24 hours): significantly upregulated
- TGFB2 gene expression (keloid fibroblasts [1]; 200 pM activin A, 24 hours): significantly upregulated
- CTGF expression in fibroblasts from multiple patients (keloid fibroblasts [1]; 200 pM activin A, multiple patient samples (normal/keloid not distinguished)): upregulation; also recorded: increased
- CTGF gene expression (normal fibroblasts [2]; 200 pM activin A, 24 hours): significantly upregulated
- FOSB gene expression (normal fibroblasts [2]; 200 pM activin A, 24 hours): significantly upregulated
- IL6 gene expression (normal fibroblasts [2]; 200 pM activin A, 24 hours): significantly upregulated
- INHBA (activin A) gene expression (normal fibroblasts [2]; 200 pM activin A, 24 hours): significantly upregulated
- JUNB gene expression (normal fibroblasts [2]; 200 pM activin A, 24 hours): significantly upregulated
- PAI1 gene expression (normal fibroblasts [2]; 200 pM activin A, 24 hours): significantly upregulated
- TGFB2 gene expression (normal fibroblasts [2]; 200 pM activin A, 24 hours): significantly upregulated
